{
  "source": "paper PMC6337131",
  "about": "“Kinetics and Predicted Structure of a Novel Xylose Reductase from Chaetomium thermophilum” (International Journal of Molecular Sciences, 2019)",
  "proteins": {"B1": {"name": "CtXR; xylose reductase from Chaetomium thermophilum (Thermochaetoides thermophila DSM 1495) (protein)", "chain": "MAPQIPNIKLSSGYDMPQVGFGLWKVDRSICADVVYNAIKIGYRLFDGACDYGNEVEAGQGIARAIKEGIVKREELFIVSKLWNTFHDGDKVEPIVRKQLADWGIDYFDLYLVHFPVALEYVDPSVRYPPGWFYDGEKEIRPSKATIQETWTAMESLVEKGLARSIGVSNFQAQLLYDLLRYAKIRPATLQIEHHPFLVQQELLNLAKAEGIAVTAYSSFGPQSFLEFNMKHAVQLTPLFEDETIKKIAAKYNRPASQVLLRWATQRGLAIIPKSTRPEIMKSNLESIEFDLSEEDIATISAFDRGLRFNQPTNYFPTEHLWIFG", "notes": "full-length ORF, codon optimized, pET28a, C-terminal His6 tag kept, E. coli BL21(DE3), IMAC and SEC; theoretical mass 39,244 Da; oligomer not determined (XRs commonly dimers)"}},
  "key": {"purified protein [1]": {"substrate": "NC(=O)C1=CN([C@@H]2O[C@H](COP(=O)(O)OP(=O)(O)OC[C@H]3O[C@@H](n4cnc5c(N)ncnc54)[C@H](O)[C@@H]3O)[C@@H](O)[C@H]2O)C=CC1", "test": "purified protein", "format": "biochemical, Thermochaetoides thermophila", "conditions": "0.5 M D-xylose, 50 mM bis-tris pH 6.5, 30 °C, varied: cofactor"}, "purified protein [2]": {"substrate": "NC(=O)C1=CN([C@@H]2O[C@H](COP(=O)(O)OP(=O)(O)OC[C@H]3O[C@@H](n4cnc5c(N)ncnc54)[C@H](OP(=O)(O)O)[C@@H]3O)[C@@H](O)[C@H]2O)C=CC1", "test": "purified protein", "format": "biochemical, Thermochaetoides thermophila", "conditions": "0.5 M D-xylose, 50 mM bis-tris pH 6.5, 30 °C, varied: cofactor"}},
  "data": [
    {"protein": "B1", "values": [
      {"measurement": "Km", "setting": "purified protein [1]", "result": "119 ± 6", "unit": "µM"},
      {"measurement": "kcat", "setting": "purified protein [1]", "result": "3.2 ± 0.1", "unit": "s⁻¹"},
      {"measurement": "kcat/Km", "setting": "purified protein [1]", "result": "26700 ± 1670", "unit": "M⁻¹ s⁻¹"},
      {"measurement": "Km", "setting": "purified protein [2]", "result": "135 ± 44", "unit": "µM"},
      {"measurement": "kcat", "setting": "purified protein [2]", "result": "11.4 ± 1.1", "unit": "s⁻¹"},
      {"measurement": "kcat/Km", "setting": "purified protein [2]", "result": "85000 ± 28300", "unit": "M⁻¹ s⁻¹"}
    ]}
  ]
}
